Data on two variants can be found in IntAct's records for PubMed 29467281.

B1: Unconventional myosin-VI (Homo sapiens), Q9UM54-1 (parent)
chain: MEDGKPVWAPHPTDGFQMGNIVDIGPDSLTIEPLNQKGKTFLALINQVFPAEEDSKKDVEDNCSLMYLNEATLLHNIKVRYSKDRIYTYVANILIAVNPYFDIPKIYSSEAIKSYQGKSLGTRPPHVFAIADKAFRDMKVLKMSQSIIVSGESGAGKTENTKFVLRYLTESYGTGQDIDDRIVEANPLLEAFGNAKTVRNNNSSRFGKFVEIHFNEKSSVVGGFVSHYLLEKSRICVQGKEERNYHIFYRLCAGASEDIREKLHLSSPDNFRYLNRGCTRYFANKETDKQILQNRKSPEYLKAGSMKDPLLDDHGDFIRMCTAMKKIGLDDEEKLDLFRVVAGVLHLGNIDFEEAGSTSGGCNLKNKSAQSLEYCAELLGLDQDDLRVSLTTRVMLTTAGGTKGTVIKVPLKVEQANNARDALAKTVYSHLFDHVVNRVNQCFPFETSSYFIGVLDIAGFEYFEHNSFEQFCINYCNEKLQQFFNERILKEEQELYQKEGLGVNEVHYVDNQDCIDLIEAKLVGILDILDEENRLPQPSDQHFTSAVHQKHKDHFRLTIPRKSKLAVHRNIRDDEGFIIRHFAGAVCYETTQFVEKNNDALHMSLESLICESRDKFIRELFESSTNNNKDTKQKAGKLSFISVGNKFKTQLNLLLDKLRSTGASFIRCIKPNLKMTSHHFEGAQILSQLQCSGMVSVLDLMQGGYPSRASFHELYNMYKKYMPDKLARLDPRLFCKALFKALGLNENDYKFGLTKVFFRPGKFAEFDQIMKSDPDHLAELVKRVNHWLTCSRWKKVQWCSLSVIKLKNKIKYRAEACIKMQKTIRMWLCKRRHKPRIDGLVKVGTLKKRLDKFNEVVSVLKDGKPEMNKQIKNLEISIDTLMAKIKSTMMTQEQIQKEYDALVKSSEELLSALQKKKQQEEEAERLRRIQEEMEKERKRREEDEKRRRKEEEERRMKLEMEAKRKQEEEERKKREDDEKRIQAEVEAQLARQKEEESQQQAVLEQERRDRELALRIAQSEAELISDEAQADLALRRNDGTRPKMTPEQMAKEMSEFLSRGPAVLATKAAAGTKKYDLSKWKYAELRDTINTSCDIELLAACREEFHRRLKVYHAWKSKNKKRNTETEQRAPKSVTDYDFAPFLNNSPQQNPAAQIPARQREIEMNRQQRFFRIPFIRPADQYKDPQSKKKGWWYAHFDGPWIARQMELHPDKPPILLVAGKDDMEMCELNLEETGLTRKRGAEILPRQFEEIWERCGGIQYLQNAIESRQARPTYATAMLQSLLK
partner: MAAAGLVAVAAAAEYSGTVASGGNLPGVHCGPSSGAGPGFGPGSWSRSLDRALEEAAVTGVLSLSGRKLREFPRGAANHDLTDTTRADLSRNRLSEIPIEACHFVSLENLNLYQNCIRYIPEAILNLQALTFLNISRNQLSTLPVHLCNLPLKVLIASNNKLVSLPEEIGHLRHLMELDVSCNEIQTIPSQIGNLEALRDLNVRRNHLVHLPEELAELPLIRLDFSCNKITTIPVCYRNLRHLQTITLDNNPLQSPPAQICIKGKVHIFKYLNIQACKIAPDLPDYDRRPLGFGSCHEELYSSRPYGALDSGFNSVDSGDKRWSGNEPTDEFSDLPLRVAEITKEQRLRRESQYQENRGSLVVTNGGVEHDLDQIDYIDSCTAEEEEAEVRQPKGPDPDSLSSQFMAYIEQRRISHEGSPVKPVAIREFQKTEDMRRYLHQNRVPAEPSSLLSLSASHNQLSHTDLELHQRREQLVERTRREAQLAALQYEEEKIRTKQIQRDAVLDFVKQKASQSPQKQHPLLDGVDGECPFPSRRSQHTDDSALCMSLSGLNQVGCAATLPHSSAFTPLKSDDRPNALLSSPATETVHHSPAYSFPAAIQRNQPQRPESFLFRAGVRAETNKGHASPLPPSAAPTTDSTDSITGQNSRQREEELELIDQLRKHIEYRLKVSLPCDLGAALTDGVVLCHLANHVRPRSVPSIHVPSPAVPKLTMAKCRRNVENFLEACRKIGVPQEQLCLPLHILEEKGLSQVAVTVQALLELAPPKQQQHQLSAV

Variants of B1 are the subject of the assay. Conditions: with lrch3_human LRCH3, Q96II8.
R1107A;R1108A;L1109A: the “effect of a mutation on the interaction” value is given as “disrupting interaction strength”.
For W1192L the value was “disrupting interaction strength”.
